Patent US20190062752, “Transcription Factor Trapping by RNA in Gene Regulatory Elements” (Whitehead Institute for Biomedical Research, published 2019)

Assays:
[1] = biological target: T1, YY1 (full length) (Mus musculus, UniProt Q00899 Q00899:1-414); assay: EMSA; tethered RNA outcompetes DNA with untethered RNA; IC50 values only in figure; settings: tags: N-terminal His6; label: 32P (probe 2); 30-bp DNA duplex with 30-nt RNA overhang at each 3' end
[2] = biological target: T1, YY1 (full length); assay: EMSA; 240 nM YY1 in FIG. 9C; settings: tags: N-terminal His6; label: 32P
Description: A radioactively labeled 30-bp DNA probe containing YY1 consensus binding motif derived from the promoter region of Arid1a gene was incubated with 80 nM of the recombinant murine YY1. For supershift assay, 0.5 μl of YY1 antibodies (# sc-7341) was added to the DNA probe pre-incubated with the recombinant protein. In competition EMSA, 100-fold molar excess of cold competitor DNA containing YY1 motif (Spec comp) or lacking YY1 motif (Nspec comp) was pre-incubated with the recombinant YY1 before the radioactively labeled DNA probe was added to the binding reaction. The arrows indicate free probe, probe bound by YY1, probe bound by YY1 fragment, and supershifted probe. […] Radioactively labeled 30-bp DNA probe containing YY1 consensus binding motif derived from the promoter region of Rpl30 gene was incubated with 240 nM of the recombinant murine YY1. In competition EMSA, 100-fold molar excess of cold competitor RNA derived from the promoter region of Arid1a gene was pre-incubated with the recombinant murine YY1 before the radioactively labeled DNA probe was added to the binding reaction. The arrows indicate free probe and probe bound by YY1;
EMSAs with the recombinant murine YY1 were performed in a similar way as those with the NE. […]

[3] = biological target: T2, OCT4 (Homo sapiens, UniProt Q01860 Q01860:1-360); assay: EMSA; legend: OCT4 does not bind RNA in vitro; settings: tags: Abcam ab134876; label: 32P
Description: (§1) The x-axis indicates distance from the TSS in kilobases. The y-axis indicates average density of uniquely mapped reads per genomic bin. […] A radioactively labeled 40-bp DNA probe containing OCT4 consensus binding motif derived from the enhancer of Lefty1 gene was incubated with 250 nM of the recombinant human OCT4 (Abcam, # ab134876). In competition EMSA, 100-fold molar excess of cold competitor DNA containing the OCT4 motif (Lefty1 DNA comp), cold DNA competitor, in which bases adjacent the OCT4 motif were randomly substituted (mut Lefty1 DNA comp), cold DNA competitor lacking the OCT4 motif (Arid1a DNA comp), or cold RNA competitor (Arid1a RNA comp) was pre-incubated with the recombinant OCT4 before the radioactively labeled DNA probe was added to the binding reaction. The arrows indicate free probe and probe bound by OCT4.

[4] = biological target: T3, YY1 C-terminal region (zinc fingers) (Mus musculus, UniProt Q00899 Q00899:271-414); assay: EMSA; zinc-finger region does not bind RNA; settings: label: 32P
Description: (§2) Sizes of N-terminal and C-terminal regions of YY1 are drawn to scale. […] 5 nM of radioactively labeled 30-bp DNA probe derived from the promoter region of Arid1a gene containing a consensus YY1 binding motif was incubated with increasing concentrations of full-length recombinant murine YY1 protein (FL), the N-terminal portion of YY1 (N-term) lacking the zinc-fingers or the C-terminal portion (C-term) containing the zinc fingers. […] The arrows indicate free probe and probe bound by YY1. […] 5 nM of radioactively labeled 30-nt RNA probe derived from the promoter region of Arid1a gene was incubated with increasing concentrations of full-length recombinant murine YY1 protein (FL), the N-terminal portion of YY1 (N-term) lacking the zinc-fingers or the C-terminal portion (C-term) containing the zinc fingers. […] The arrows indicate free probe and probe bound by YY1;
(§3) EMSAs with the recombinant murine YY1 were performed in a similar way as those with the NE. DNA-binding reactions (20 μl) contained 10 mM HEPES-KOH pH 7.5, 12 mM Tris-HCl pH 7.4, 50 mM NaCl, 50 mM KCl, 5 mM MgCl₂, 0.1 mM ZnCl₂, 0.01% NP-40, 5% glycerol, 500 ng poly(dI-dC), 0.5 mM DTT, and recombinant murine YY1. […]

[5] = biological target: YY1 N-terminal region (Mus musculus, UniProt Q00899 Q00899:1-277); assay: EMSA; N-terminal region binds RNA; settings: label: 32P
Description: as §2, §3

[6] = biological target: T1, YY1 (full length); assay: EMSA; weaker than DNA; 0.1 mM ZnCl2, 5 mM MgCl2; settings: tags: N-terminal His6; label: 32P
Description: (§4) 5 nM of radioactively labeled 30-bp DNA probe derived from the promoter region of Arid1a gene containing a consensus YY1 binding motif ([…]; SEQ ID NO: 4) was incubated with increasing concentrations of recombinant murine YY1 protein. Right panel: EMSA of YY1-RNA complexes at different concentrations of recombinant YY1. 5 nM of radioactively labeled 30-nt RNA probe derived from the same region of the Arid1a gene was incubated with increasing concentrations of recombinant YY1 protein.
(§5) EMSAs with the recombinant murine YY1 were performed in a similar way as those with the NE. DNA-binding reactions (20 μl) contained 10 mM HEPES-KOH pH 7.5, 12 mM Tris-HCl pH 7.4, 50 mM NaCl, 50 mM KCl, 5 mM MgCl₂, 0.1 mM ZnCl₂, 0.01% NP-40, 5% glycerol, 500 ng poly(dI-dC), 0.5 mM DTT, and recombinant murine YY1. RNA-binding reactions (20 μl) contained 10 mM HEPES-KOH pH 7.5, 12 mM Tris-HCl pH 7.4, 50 mM NaCl, 50 mM KCl, 5 mM MgCl₂, 0.1 mM ZnCl₂, 0.01% NP-40, 5% glycerol, 10 U SUPERase In RNase inhibitor (Life Technologies), 0.5 mM DTT, and recombinant murine YY1.

[7] = biological target: T2, OCT4; assay: EMSA; 250 nM OCT4; settings: tags: Abcam ab134876; label: 32P
Description: as §1

[8] = biological target: T1, YY1 (full length); assay: competition; described as RNA incompatible with YY1 binding in vitro; settings: tags: N-terminal His6
Description: A radioactively labeled 30-nt RNA probe containing sequence derived from the promoter region of Arid1a gene shown in blue above the image or the complementary sequence shown in pink was incubated with 400 nM of the recombinant murine YY1. The arrows indicate free probe and probe bound by YY1. […] Radioactively labeled 30-nt RNA probe derived from the promoter region of Arid1a gene was incubated with 400 nM of recombinant murine YY1. Sequence of the probe is shown above the image in blue. In competition EMSA, 100-fold molar excess of cold competitor RNA with the same sequence as the radiolabeled RNA (Arid1a RNA A), complementary sequence (Arid1a RNA 1), or a different sequence (Arid1a RNA B) was pre-incubated with the recombinant YY1 before the probe was added to the binding reaction. The arrows indicate free probe and probe bound by YY1. Asterisk indicates the position of double-stranded RNA formed when single-stranded cold RNA was incubated with the complementary labelled RNA probe. […] Radioactively labeled 30-nt RNA probe derived from the promoter region of Arid1a gene was incubated with 400 nM of recombinant murine YY1. Sequence of the probe and competitor RNA are shown above the image. For supershift assay, 0.5 μl of YY1 antibodies (# sc-7341) was added to the RNA probe. […]

[9] = biological target: T3, YY1 C-terminal region (zinc fingers); assay: EMSA; zinc-finger region binds DNA; settings: label: 32P
Description: as §2, §3

[10] = biological target: T1, YY1 (full length); assay: EMSA; higher affinity than for RNA; 0.1 mM ZnCl2, 5 mM MgCl2; binding curve only in FIG. 7B; settings: tags: N-terminal His6; label: 32P
Description: as §4, §5

T1 sequence (Q00899 whole entry, one chain of several): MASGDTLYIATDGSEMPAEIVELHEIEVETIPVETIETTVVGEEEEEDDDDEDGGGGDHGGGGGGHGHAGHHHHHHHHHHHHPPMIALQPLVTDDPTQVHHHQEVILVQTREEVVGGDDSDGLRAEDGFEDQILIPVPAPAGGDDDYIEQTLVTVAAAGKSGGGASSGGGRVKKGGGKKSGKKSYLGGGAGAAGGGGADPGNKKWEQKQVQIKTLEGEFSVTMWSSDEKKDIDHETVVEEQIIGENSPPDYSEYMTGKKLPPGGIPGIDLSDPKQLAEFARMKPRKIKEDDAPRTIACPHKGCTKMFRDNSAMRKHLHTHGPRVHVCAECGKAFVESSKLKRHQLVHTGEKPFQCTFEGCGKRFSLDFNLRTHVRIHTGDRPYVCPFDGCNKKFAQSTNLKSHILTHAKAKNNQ
T2 sequence (Q01860 whole entry, one chain of several): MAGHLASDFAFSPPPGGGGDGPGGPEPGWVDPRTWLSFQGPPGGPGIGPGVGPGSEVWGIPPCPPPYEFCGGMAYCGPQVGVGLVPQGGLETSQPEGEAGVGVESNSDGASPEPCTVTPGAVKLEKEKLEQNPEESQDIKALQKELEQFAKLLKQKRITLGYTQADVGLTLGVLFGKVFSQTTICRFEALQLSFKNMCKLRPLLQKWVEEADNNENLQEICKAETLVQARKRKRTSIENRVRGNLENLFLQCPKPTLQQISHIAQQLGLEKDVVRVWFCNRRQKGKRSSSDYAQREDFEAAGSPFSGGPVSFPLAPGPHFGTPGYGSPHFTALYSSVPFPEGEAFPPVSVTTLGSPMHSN
T3 sequence (Q00899 271-414, one chain of several): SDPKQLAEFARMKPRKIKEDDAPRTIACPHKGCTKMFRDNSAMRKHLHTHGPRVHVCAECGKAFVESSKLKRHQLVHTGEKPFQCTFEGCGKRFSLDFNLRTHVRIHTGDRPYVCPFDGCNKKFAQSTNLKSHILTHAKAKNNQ
Sequence of YY1 N-terminal region (Q00899 1-277, one chain of several): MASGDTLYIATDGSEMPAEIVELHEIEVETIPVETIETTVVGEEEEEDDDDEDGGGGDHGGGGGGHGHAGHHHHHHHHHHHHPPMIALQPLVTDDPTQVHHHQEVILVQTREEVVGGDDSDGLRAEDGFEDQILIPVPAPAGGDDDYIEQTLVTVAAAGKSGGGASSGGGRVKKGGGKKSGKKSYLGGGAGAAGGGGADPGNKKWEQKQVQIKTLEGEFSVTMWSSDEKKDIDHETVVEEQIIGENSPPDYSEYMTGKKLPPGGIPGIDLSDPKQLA

B1: Rpl30 DNA with tethered Arid1a RNA (mixed)
mixed 1: TCGCTCCCCGGCCATCTTGGCGGCTGGTGTCUCUUCUCUCUUAAAAUGGCUGCCUGUCUG
mixed 2: ACACCAGCCGCCAAGATGGCCGGGGAGCGACUCUUCUCUCUUAAAAUGGCUGCCUGUCUG
B1: binds [1].

B2: Rpl30 promoter DNA with YY1 motif (dsDNA)
DNA 1: TCGCTCCCCGGCCATCTTGGCGGCTGGTGT
DNA 2: ACACCAGCCGCCAAGATGGCCGGGGAGCGA
B2: binds [2].

CUCUUCUCUCUUAAAAUGGCUGCCUGUCUG (ssRNA) [Arid1a promoter RNA A]: no binding [3]; no binding [4]; binds [5]. CUCUUCUCUCUUAAAAUGGCUGCCUGUCUG (ssRNA) [Arid1a promoter RNA A]: binds [6].

B3: Lefty1 enhancer DNA (dsDNA)
DNA 1: GGTGGGAGGGAGACTGCCCTTTGTCATGTAGAAGGAGCTT
DNA 2: AAGCTCCTTCTACATGACAAAGGGCAGTCTCCCTCCCACC
B3: binds [7].

CCCGCCUCCCCAGGCCUACGCGCUGAGCUC (ssRNA) [Arid1a promoter RNA B]: no binding [8].

B4: Arid1a promoter DNA with YY1 motif (dsDNA)
DNA 1: CTCTTCTCTCTTAAAATGGCTGCCTGTCTG
DNA 2: CAGACAGGCAGCCATTTTAAGAGAGAAGAG
B4: binds [9]; binds [10].
